Measured values as given in PMC5643242 (The FEBS journal, 2017).
Where two headings read alike, the source gives them in different places.

Columns and labels:
Test in all cases: stopped-flow fluorescence
[1] = target: T1, Cdc42 GTPase (residues 1-179), loaded with mantGppNHp (human, UniProt P60953 1-179)
[2] = target: T1, Cdc42 GTPase (residues 1-179), loaded …; remark: listed apart in the source
[3] = target: T1, Cdc42 GTPase (residues 1-179), loaded …; remark: listed apart in the source
[4] = target: T1, Cdc42 GTPase (residues 1-179), loaded …; remark: listed apart in the source
[5] = target: T1, Cdc42 GTPase (residues 1-179), loaded …; remark: listed apart in the source

T1 sequence (P60953 1-179): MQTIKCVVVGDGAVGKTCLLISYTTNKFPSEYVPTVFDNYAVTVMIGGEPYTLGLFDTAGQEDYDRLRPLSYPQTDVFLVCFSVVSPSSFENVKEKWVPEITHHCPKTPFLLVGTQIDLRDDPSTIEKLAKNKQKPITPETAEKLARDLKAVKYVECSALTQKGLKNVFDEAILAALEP

B1: Wiskott-Aldrich Syndrome protein (WASP) GTPase binding domain (GBD) construct, residues 154-322 (domain or fragment, human, UniProt P42768 154-322, looked up)
chain: GDRRQLPPPPTPANEERRGGLPPLPLHPGGDQGGPPVGPLSLGLATVDIQNPDITSSRYRGLPAPGPSPADKKRSGKKKISKADIGAPSGFKHVSHVGWDPQNGFDVNNLDPDLRSLFSRAGISEAQLTDAETSKLIYDFIEDQGGLEAVRQEMRRQEPLPPPPPPSRG
In the case of B1, the koff [1] is reported as 4.1 ± 1.7 s⁻¹, the kon [1] is reported as 1.2e+07 M⁻¹ s⁻¹ and the kon [2] is reported as 1.63e+07 M⁻¹ s⁻¹. The kon [3] was 1.75e+07 M⁻¹ s⁻¹, the kon [4] was 2.07e+07 M⁻¹ s⁻¹ and the “fold decrease of ka at 2 M urea against no urea” value [5] was 3.4 fold.
